According to patent US20240150473A1, “MODULATION OF WNT SIGNALING IN GASTROINTESTINAL DISORDERS” (Surrozen Operating, Inc., priority 2021, published 2024):

Assays:
[1] = system: DSS induced acute colitis in C57BL6/J mice; assay: DSS induced acute colitis model; format: in vivo, mouse; details: IP twice weekly or daily starting on day 4 of DSS
Procedure: 7- to 8-week-old female C57BL6/J mice were fed with 4% (wt/vol) Dextran Sulfate Sodium (DSS, MP Biomedicals, molecular weight 36-50 kDa, Ref #160110) in drinking water from day 1 to day 7 to induce colitis and were switched to 1% DSS from day 8. […] Animals were terminated on day 10, allowing a 6-day course of protein treatment, and the colon was harvested for histology and RT-qPCR. […] The disease activity index (DAI) was calculated based on the average score of weight loss, stool consistency and the degree of intestinal bleeding (Wirtz Stefan et al., 2017). Scoring system by grading was on a scale of 0 to 4 using the following parameters: loss of weight (0, 0-1%; 1, 1-6%; 2, 6-12%; 3, 12-18%; 4, >18%), stool consistency (0, normal; 1, soft but still formed; 2, soft; 3, very soft, wet; 4, watery diarrhea) and intestine bleeding (0-1, negative hemoccult; 2, positive hemoccult; 3, blood traces in stool visible; 4, gross rectal bleeding).
Small intestine and colon were extracted and, after removing fecal content, weighted and length measured. The desired small intestine segments (duodenum, jejunum, ileum) and colon segments (ascending, transverse and descending colon) were cut out and fixed directly in 10% neutral buffered formalin (NBF) overnight. Tissues were then transferred to 70% ethanol before paraffin embedding. Paraffin tissue blocks were then sectioned to […] thickness and stained with hematoxylin and eosin (H&E) for histology analysis. Pathology reading was performed by an independent pathologist.
[…] Groups of mice were either untreated, treated with an isotype control antibody (anti-GFP), or treated with the indicated engineered Wnt agonist once on day 4 or twice on day 4 and 7. […]
The 123 mice total were grouped: (Day3=13, day4=13, day5=26, day6=24, day7=26, day10=21), with 91 used for histology endpoints, and 21 for scRNA-seq (group eliminated because of machinery). Daily food intake, BW, fecal score, and occult blood were measured. […]

[2] = system: colon tissue markers (ZO-1, Ki67, Axin2, Cdkn3, S100A9, CD45); assay: RNA in situ hybridization and immunohistochemistry/immunofluorescence of colon tissue, DSS model; format: in vivo, mouse; details: day 10 of the DSS model
Source text: Expression of mRNA was detected by RNAscope in situ hybridization (ACD Bio). RNAscope probes used are listed below. For colorimetric visualization, standard RNAscope® 2.5 HD Assay-Red protocol (www.acdbio.com) was followed, and images were acquired on a Leica DMi8 microscope equipped with a DFC7000T color camera. For fluorescent RNAscope in situ hybridization, standard RNAscope Multiplex Fluorescent Reagent Kit v2 Assay protocol was followed (ACD Bio Document #323100-USM) and coupled with the TSA Plus Cyanine 3 and 5 Systems. Fluorescent images were acquired with a Leica Thunder imaging system.
In brief, five-micron thick formalin fixed paraffin embedded tissue sections on slides were deparaffinized followed by citrate buffer (pH 6) antigen retrieval in a steamer. Slides were then washed thoroughly in tap water followed by 1× wash in PBST. Subsequently, tissue sections were blocked with serum free protein block (Agilent, X090930-2) for one hour at room temperature followed by incubation in primary antibodies. After primary antibody incubation, tissue sections were washed in 0.1% TX-100 in PBS (PBST) at least three times followed by incubation in secondary antibody. Afterwards, tissue sections were washed with PBST, and coverslips were mounted with Vectashield Vibrance antifade mounting medium with DAPI (Vector Laboratories, H-1800).

Lrp6E3E4 domain = target: T1, Lrp6E3E4 domain (Homo sapiens, UniProt O75581); assay: Bio-layer interferometry (Octet) binding kinetics of VHH26 constructs; details: 1:1 binding model
T1 sequence (O75581 631-1244 limits assumed): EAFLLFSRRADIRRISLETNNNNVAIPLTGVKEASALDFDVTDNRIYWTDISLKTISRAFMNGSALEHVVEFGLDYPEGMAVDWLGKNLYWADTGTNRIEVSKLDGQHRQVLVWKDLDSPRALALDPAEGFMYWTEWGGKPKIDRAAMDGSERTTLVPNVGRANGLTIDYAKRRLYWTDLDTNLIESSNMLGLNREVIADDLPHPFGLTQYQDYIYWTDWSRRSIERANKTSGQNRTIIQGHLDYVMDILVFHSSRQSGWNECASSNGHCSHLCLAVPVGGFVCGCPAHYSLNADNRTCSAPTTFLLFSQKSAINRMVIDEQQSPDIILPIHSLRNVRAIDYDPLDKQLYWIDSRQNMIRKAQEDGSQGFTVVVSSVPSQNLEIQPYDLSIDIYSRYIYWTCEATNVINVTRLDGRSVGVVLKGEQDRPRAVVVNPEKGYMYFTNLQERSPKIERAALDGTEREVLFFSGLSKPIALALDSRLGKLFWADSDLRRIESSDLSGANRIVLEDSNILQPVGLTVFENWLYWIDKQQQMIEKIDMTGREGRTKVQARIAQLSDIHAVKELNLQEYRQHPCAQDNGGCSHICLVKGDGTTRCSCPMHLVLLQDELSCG
Procedure: These six humanized VHH26 variants H1 to H6 and the parental VHH26 were transiently expressed in Expi293 cells (at 80 mL scale) with a C-terminal hexa-histidine tag. Proteins were purified using His-Complete resin (Roche, USA) following standard procedures. Expression levels and homogeneity of VHH26 and its humanized variants were analyzed by SDS-PAGE and SEC (size-exclusion chromatography). […] Biotinylated LRP6E3E4 diluted to 50 nM in the running buffer (PBS, 0.05% Tween-20, 0.5% BSA, pH 7.2) were captured to the SA biosensor followed by dipping into wells containing the indicated VHH26 proteins at different concentrations in running buffer or into a well with only running buffer as a reference channel. KD for each binder was calculated by Octet System software, based on fitting to a 1:1 binding model. Kinetics values (Kon, Koff, KD) from each experiment was calculated from seven technical replicates of different concentrations of the molecule tested with Octet Data Analysis 9.0 (PALL ForteBio, Fremont, CA).
Central fractions of each of these peaks were examined by Octect-BLI for their ability interact with Lrp6. Kinetics parameters such as kon, koff, and KD for interaction between VHH26 constructs and Lrp6E3E4 domain are listed in Table 2. Analyses of these parameters reveal that the binding affinity towards Lrp6 is least affected in the case of the VHH26-H5 humanized variant compared to the parent VHH26 (Table 2; FIG. 3B).

[3] = SEC fraction C1/G1 (parental D3)
[4] = SEC fraction C3/G3 (parental D3)

Molecule | repair of damaged colon epithelium / colon histology [1] | Ki67 expression in duodenum and colon [2] | koff (Lrp6E3E4 domain; [3]) | kon (Lrp6E3E4 domain; [3]) | koff (Lrp6E3E4 domain; [4]) | kon (Lrp6E3E4 domain; [4])
RSPO2: R-spondin 2, ligand that amplifies WNT signals (protein, UniProt Q6UXX9 22-243, looked up) R-spondin-2: QGNRWRRSKRASYVSNPICKGCLSCSKDNGCSRCQQKLFFFLRREGMRQYGECLHSCPSGYYGHRAPDMNRCARCRIENCDSCFSKDFCTKCKVGFYLHRGRCFDECPDGFAPLEETMECVEGCEVGHWSEWGTCSRNNRTCGFKWGLETRTRQIVKKPVKDTILCPTIAESRRCKMTMRHCPGGKRTPKAKEKRNKKKKRKLIERAQEQHSVFLATDRANQ | less significant as compared to the effect of R2M3-26 | expansion of Ki67 expression | – | – | – | –
VHH26-H4: humanized variant of LRP6 binding VHH26, SEQ ID NO: 22 [VHH26-H4] (protein, VHH26_H4) VHH: EVQLVESGGGLVQPGGSLRLSCAGSGRIFAIYDIAWYRQAPGKGRELVAMIRPVVTEIDYADSVKGRFTISRDNSKNTVYLQMNSLRAEDTAVYYCNAKRPWGSRDEYWGQGTTVTVSS | – | – | 9.51E−02 | 1.44E+05 | 5.56E−03 | 2.90E+04
VHH26-H5: humanized variant of LRP6 binding VHH26, SEQ ID NO: 23 (protein, VHH26_H5) VHH: EVQLVESGGGLVQPGGSLRLSCAGSGRIFAIYDIAWYRQAPGKGREWVAMIRPVVTEIDYADSVKGRFTISRDNSKKTVYLQMNSLRAEDTAVYYCNAKRPWGSRDEYWGQGTTVTVSS | – | – | 1.77E−02 | 4.28E+05 | 1.47E−02 | 1.35E+05
VHH26-H6: humanized variant of LRP6 binding VHH26, SEQ ID NO: 24 [VHH26-H6] (protein, VHH26_H6) VHH: EVQLVESGGGLVQPGGSLRLSCAGSGRIFAIYDIAWYRQAPGKGRELVAMIRPVVTEIDYADSVKGRFTISRDNSKKTVYLQMNSLRAEDTAVYYCNAKRPWGSRDEYWGQGTTVTVSS | – | – | 3.11E−02 | 4.52E+04 | 8.36E−03 | 1.72E+04
VHH26 (parental): parental camelid LRP6 binding VHH, SEQ ID NO: 25 (protein, VHH26 (parental)) VHH: DVQLVESGGGLVQAGGSLRLACAGSGRIFAIYDIAWYRHPPGNQRELVAMIRPVVTEIDYADSVKGRFTISRNNAMKTVYLQMNNLKPEDTAVYYCNAKRPWGSRDEYWGQGTQVTVSS | – | – | 1.77E−02 | 8.10E+05 | 1.82E−02 | 1.05E+06
VHH26-H2: humanized variant of LRP6 binding VHH26, SEQ ID NO: 20 (protein, VHH26_H2) VHH: EVQLVESGGGLVQPGGSLRLSCAGSGRIFAIYDIAWYRQAPGKGLEWVAMIRPVVTEIDYADSVKGRFTISRDNSKNTVYLQMNSLRAEDTAVYYCNAKRPWGSRDEYWGQGTTVTVSS | – | – | 6.53E−02 | 1.48E+05 | 6.84E−02 | 2.44E+05
VHH26-H3: humanized variant of LRP6 binding VHH26, SEQ ID NO: 21 (protein, VHH26_H3) VHH: EVQLVESGGGLVQPGGSLRLSCAGSGRIFAIYDIAWYRQAPGKGREWVAMIRPVVTEIDYADSVKGRFTISRDNSKNTVYLQMNSLRAEDTAVYYCNAKRPWGSRDEYWGQGTTVTVSS | – | – | 5.22E−02 | 1.63E+04 | 7.75E−03 | 1.84E+04
VHH26-H1: humanized variant of LRP6 binding VHH26, SEQ ID NO: 19 (protein, VHH26_H1) VHH: EVQLLESGGGLVQPGGSLRLSCAASGRIFAIYDIAWVRQAPGKGLEWVSMIRPVVTEIDYADSVKGRFTISRDNSKNTLYLQMNSLRAEDTAVYYCAKKRPWGSRDEYWGQGTTVTVSS | – | – | – | – | 3.98E−03 | 1.42E+04
